# B1: recombinant Flag-ZNF212 (natural protein)
# chain: not shown
# notes: ZNF212, human, 3X-Flag tagged coding region cloned in pCold TF DNA; The host strain (E. coli BL21 (DE3)) is stated for hNEIL3 only; the later purification steps are told for hNEIL3 only; also called hZNF212; source: pCold TF DNA vector, cells grown in LB broth at 15°C, purified (Ni-NTA)
# Target: T1, recombinant HA-NEIL3 (human, UniProt Q8TAT5 1-605)
# T1 construct: NEIL3, human (hNEIL3), subcloned into a pET19b-derived plasmid; The methods tell 3x FLAG (N-terminus) and 10x His (C-terminus); the results call the purified protein HA-NEIL3; Which tags stood on the protein in the assay is not clear; also called hNEIL3; source: E. coli BL21 (DE3), purified (Ni-NTA, Q column, gel filtration)
# T1 sequence (looked up): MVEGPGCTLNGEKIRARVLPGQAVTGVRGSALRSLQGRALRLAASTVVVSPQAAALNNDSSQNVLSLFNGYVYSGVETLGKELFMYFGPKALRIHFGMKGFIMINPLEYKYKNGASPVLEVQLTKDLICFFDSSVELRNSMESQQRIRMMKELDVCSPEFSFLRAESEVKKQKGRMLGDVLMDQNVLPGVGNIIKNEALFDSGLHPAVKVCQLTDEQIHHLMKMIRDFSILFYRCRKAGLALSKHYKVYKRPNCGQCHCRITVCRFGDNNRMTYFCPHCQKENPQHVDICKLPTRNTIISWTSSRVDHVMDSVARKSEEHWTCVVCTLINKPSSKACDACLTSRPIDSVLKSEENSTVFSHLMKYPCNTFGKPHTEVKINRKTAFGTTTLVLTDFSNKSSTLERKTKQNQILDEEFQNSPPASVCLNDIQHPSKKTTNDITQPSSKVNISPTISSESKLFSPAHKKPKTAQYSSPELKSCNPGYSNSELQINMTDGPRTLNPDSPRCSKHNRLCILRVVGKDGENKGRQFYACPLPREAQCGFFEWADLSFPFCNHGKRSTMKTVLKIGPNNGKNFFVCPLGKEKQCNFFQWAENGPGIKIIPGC
# Test: co-IP; purified recombinant Flag-ZNF212 (or ZNF212-C) and HA-NEIL3; immunoprecipitation with increasing amounts of HA-NEIL3
# Settings: both partners purified
binder,measurement,value
B1,binding result,binds

# — publication PMC9881131, “ZNF212 promotes genomic integrity through direct interaction with TRAIP” (Nucleic Acids Research, 2023)
